Earlier results as cited in publication PMC8266389.

Assays:
Cripto-1 (Homo sapiens) = Cripto-1 (Homo sapiens) (UniProt P13385)
ACTRIIA (Homo sapiens) = ACTRIIA (Homo sapiens) (UniProt P27037)
ACTRIIB (Homo sapiens) = ACTRIIB (Homo sapiens) (UniProt Q13705)
BMPRII (Homo sapiens) = BMPRII (Homo sapiens) (UniProt Q13873)
Cryptic (Homo sapiens) = Cryptic (Homo sapiens) (UniProt P0CG37)
ALK4 (Homo sapiens) = ALK4 (Homo sapiens) (UniProt P36896)
Sequence of UniProt P36896 (P36896 24-126): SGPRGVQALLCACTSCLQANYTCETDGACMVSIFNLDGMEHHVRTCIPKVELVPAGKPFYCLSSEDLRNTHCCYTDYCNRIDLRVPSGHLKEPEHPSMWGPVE

Sequence of UniProt Q13873 (Q13873 27-150): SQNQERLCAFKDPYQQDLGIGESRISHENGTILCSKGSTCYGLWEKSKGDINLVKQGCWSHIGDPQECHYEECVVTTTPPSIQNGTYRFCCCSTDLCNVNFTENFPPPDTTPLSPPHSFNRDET
Sequence of UniProt P27037 (P27037 20-135): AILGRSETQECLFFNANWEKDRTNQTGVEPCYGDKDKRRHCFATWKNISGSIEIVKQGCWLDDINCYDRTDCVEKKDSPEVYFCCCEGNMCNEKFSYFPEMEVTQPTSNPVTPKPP
Sequence of UniProt P0CG37 (P0CG37 26-158): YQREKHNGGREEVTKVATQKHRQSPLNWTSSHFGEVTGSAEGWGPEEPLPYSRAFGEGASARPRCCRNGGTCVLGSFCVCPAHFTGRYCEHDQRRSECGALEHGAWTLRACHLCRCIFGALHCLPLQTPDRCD
Sequence of UniProt Q13705 (Q13705 19-137): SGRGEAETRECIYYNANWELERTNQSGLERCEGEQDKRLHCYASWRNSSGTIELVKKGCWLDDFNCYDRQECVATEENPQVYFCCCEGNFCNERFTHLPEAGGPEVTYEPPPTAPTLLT
Sequence of UniProt P13385 (P13385 31-150): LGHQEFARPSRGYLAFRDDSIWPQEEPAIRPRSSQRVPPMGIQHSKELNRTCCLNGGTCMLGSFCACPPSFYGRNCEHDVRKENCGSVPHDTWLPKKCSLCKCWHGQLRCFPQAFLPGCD

Which Kd (Cripto-1 (Homo sapiens)) does the source give for Nodal (from UniProt Q96S42) here?
Its Kd is 16 nM.

What about the Kd (ACTRIIA (Homo sapiens)) of the same substance?
Its Kd is 100 nM.

And the Kd (ACTRIIB (Homo sapiens))?
The Kd was 10 nM.

What about the Kd (BMPRII (Homo sapiens)) of the same substance?
The Kd was 0.149 nM.

What about the Kd (Cryptic (Homo sapiens)) of the same substance?
Its Kd is 2000 nM.

And the Kd (ALK4 (Homo sapiens))?
Its Kd is 15 nM.
